Test results from the DeepSol protein solubility set.

Experiment: soluble on expression in E. coli; label from the status in PepcDB or PDB records

Row | Sequence | soluble on expression in E. coli
1 | MSLSAYSQVSIDKTMFVEGREFLHIDQAGWVAKESTSEEDNRMSKVQEMLSEKYQKDSFSIYVKQLTTGKEAGINQDEKMYAASVLKLSYLYYTQEKINEGLYQLDTTVKYVSAVNDFPGSYKPEGSGSLPKKEDNKEYSLKDLITKVSKESDNVAHNLLGYYISNQSDATFKSKMSAIMGDDWDPKEKLISSKMAGKFMEAIYNQNGFVLESLTKTDFDSQRIAKGVSVKVAHKIGDADEFKHDTGVVYADSPFILSIFTKNSDYDTISKIAKDVYEVLKEGHHHHHH | soluble
2 | LRIEPVHDVEHSATVRDLEHIVAESRDAGELPRELSTLLGRILDFPTRTAGHAMIPRAHVDTVRAHDSLSSVLEKMGAGHTRYPVVGSSSDDLRGVIHLHDLLGEQSDGPAASRARPAVVVPSSLPLPDVLEQLTAARDEMALVVDEYGGFAGVITIEDLAEELVGEIA | not soluble
3 | MGSDKIHHHHHHMTPIQSGILLEHRRFAIFMEAMIQGEFDAIRQGCKKFCQTLQELQQQYPDAGLGAVLAFGNDVWRDLDCNHCAAELKPFTPLGKGLAPATQRDLLIHIQSLRHDVNFTLAQAALAAFGSAIRIEEETHGFRWVEDRDLSGFIDGTENPQGDARHAVAIIPEGQPDAGGSYVFTQRWEHNLKQLQRFSVEQQEQMIGRTKQDNEELSSDERPVTSHLSRVDLKEDGKGLKILRQSLPYGTASGKNGLYFVAYCARLHNIEQQLLSMFGGRDGKRDDMLRFTRAVSGSYFFAPSLDQLLSL | not soluble
4 | MGHHHHHHSHRSIGLKVGLEIHQQLDTREKLFCSCPAELGEEEHDEFVRQLRPTRSELGDVDPAALFEWRKGRLYIYQAPLNHSCLVEADEEPPHPINREAVAVAVAVAKALGSAIVDEVHVMRKTVIDGSNTSGFQRTAIVALGGSIRVGSKEVPIETIVIEEDAARKVGEKGRYVVYRLDRLGIPLIEIATAPVIESPGEAREVALAIGTMLRLTGKVKRGLGTIRQDLNVSIRGGAKTEIKGVQRLELIPRVIEYEVLRQLSLLRIR | not soluble
5 | MAHHHHHHMVRRLEGNPVPTIGIIFMLHAHRTAHLKYYQSMSLFAIENVDVVWGAAGYSILKQTQGAWMALYDEAYVSENKVMPFGYLVQNGVLMPTSDPCNAANTLAGDGSATAKKWGGTSQQKHRYAYEADVVPRRSCIKARTRSADNSGRRVTFCSGDTEFGVF | not soluble
6 | RRRFDEKRREMLMGKLEEINQKRIAEALESEKKSLEKVSRSDQLRIDLITNVSHDLKTPLTSMVGYIELIKKEELSDLVRDYVDVLSERAEKLKEMINSLFSLAKASSGNIELHPEKFELNRLVEQIFADMHDHVKESELQFVKQFTEENTEIISDNMYFYRICQNLIENALKYSAKHTRVFVKTYQKESSNHLCLEITNTAGYPMDFTKEEIIERFFRGDKQRSSEGNGLGLAIVSTYVKALGGEFDIKIDCDQFKACVEMPLSAITIT | not soluble
7 | MSLISLSFFPGAKIGVLGLNGAGKSTLLRIMAGIDKDIDGEARPQPGLKVGYLPQEPKLDESKTVREVVEEAVADVAYALKRLDEVYAAYAEPDADFDALAKEQGELEALIQAKNGHNLDNALERAADALRLPEWDAQVKYLSGGERRRVAICRLLLENPDMLLLDEPTNHLDAESVAWLERFLVDYAGTVVAITHDRYFLDNAAGWILELDRGEGIPWQGNYTSWLEQKDARLKQEASQEKARQKTIEKELEWVRQNPKGRQAKSKARMARFEELQNTEHQKRNETNELFIPPGERLGDKVIEVKNLTKSFDGRVLIDDLSFSMPKGAIVGIIGPNGAGKSTLFKMLSGVEKPDSGTIELGDTVKLASVDQFRDSMNDKHTVFQEISEGADIIRINNFEIPARAYCSRFNFKGVDQQKVIGELSGGERNRVHLAKLLKAGGNVLLLDEPTNDLDVETLRALEEALLEFPGCAMVISHDRWFLDRIATHILDYRDEGKVNFYEGNYTEYMEWLKQTLGAQAAEPHRIKYKRITK | not soluble
8 | SKEHREIAKKIAQKSMVLLKNENILPFTPQEKIALVGPGAQSQDILGAWSWQGKKEEAISLVAGAQKLTTNLLVAQEPFDYFEPTAAAIEEALTLASQADKVVVALGETDWMSGEAASRSDIRLPEKQLAVVAQIIEKNPNVVVTVYSGRPLDLQGIDVAKGIVQAWQPGTEGGNALAEILWGQYNPSGRLSMSFPETVGQVPIFYNVDNTGRPYESAPEEKYVSKYLDVSNYAKYPFGFGLSYSHF | not soluble
9 | MGSDKIHHHHHHMEASSGHQLMAETLGKFVSLVSKRLPDDVMAKLTELKGIETEPLAKSLYACMFENMEKAESLNRPTCQDTGVIQFFVRAGAKFPYLGELRGILKEATILSTKQAPLRLNAVEPFDEKNTGTNVGTKVPWIEWDIVSDDDSVEIEVYMAGGGCSLPGRSIVLPPLAGYEGAVKFVFDTIVEWGINACPPLTVGVGIGTCSTSAAKLSKMAMLRKLGSSNPHPRAAEMERRIQEGLDAIGLGPQGISGHRSVLGVHVEGMAHHPSVLGVGVTVGCWANRHGIIQFNKNLQYTMISHQGVEL | not soluble
10 | MKDTLKIGLLGLGTVGTGVLTLLKEHQEKISQVTGMNVVIEKAFVRNLETKQAQAEEYGLSLTTSIDDILEDKEIQIVVELMGTIEPAKTYIMKALEKGKHIVTANKDLLAQHGSELVALAQKHHCDLYYEASVAGGIPILRTIANSLAADNIQQVLGIVNGTTNYMLTQMVSADKSYEEALAEAQALGFAEADPTNDVDGIDAAYKMVILSQFAFGMNVSLPQVDIRGIRGLSLDDVAMAKQLGYEIKLIGSAEQNENSISVEVAPMLVNQKHPIASVRNEYNAVFIKSAGVGESMYYGPGAGAKPTATSVVSDLITIAKNIRLATTGHMFNSYQHKTQLTSSENVFGQYYFSLDVPDTPGQFLQLTQLMTKAEVSFDQLVQQKSDGQRARIVAITHQISKAQMQQVVIAIQNTEAFQLLNVMKVIGDE | not soluble
11 | MIRLAPLITADVDTTTLPGGKASDAAQDFLALLSEALAGETTTDKAAPQLLVATDKPTAKGEPLVSDILSDAQQADLLIPVDETPPVINDEQSTLTPLTTAQTMTLAAVADKNTTKDEKADDLNEDVTASLSALFAMLPGFDNTPKVTDAPSTVLPAEKPTLFTKLTSAQLTTAQPDDAPGTPAQPLTPLVAEAQSKAEVISTPSPVTADASPLITPHQTQPLPTVAAPVLSAPLGSHEWQQSLSQHISLFTRQGQQSAELRLHPQDLGEVQISLKVDDNQAQIQMISPHQHVRAALEAALPVLRTQLAESGIQLGQSNISGESFSGQQQAASQQQQSQRTANHEPLAGEDDDTLPVPVSLQGRVTGNSGVDIFA | soluble
12 | MSLGTVHARSLEPLPASGPDFGALGEEAEFVEVEPEAKQEILENKDVVVQHVHFDGLGRTKDDIIMYEIRDVFKAKNLIEVMRKSHEAREKLLRLGIFRQVDVLIDTCQGDDALPNGLDVTFEVTELRRLTGSYNTMVGNNEGSMVLGLKLPNLLGRAEKVTFQFSYGTKETSYGLSFFKPQPGNFDRNFSVNLYKVTGQFPWSSLRETDRGVSAEYSFPTWKTSHTVKWEGVWRELGCLSRVASFAVRKESGHSLKSSLSHSMVIDSRNSSILPKRGALLKVNQELAGYTGGDVSFLKEDFELQLNKQLILDTVFSASLWGGMLVPMGDKPSSIADRFYLGGPTSVRGFSMHSVGPQSEGDYLGGEAYWAGGLHLYTPLPFRPGQGGFGELFRTHFFLNAGNLCNLNYGEGPKAHIRKLAECIRWSYGAGIVLRLGNIARLELNYCVPMGVQRGDRICDGVQFGAGIRFLEGHHHHHH | not soluble
13 | MGSHHHHHHRTPSDKPVAHVVANPQAEGQLQWLNRRANALLANGVELRDNQLVVPSEGLYLIYSQVLFKGQGCPSTHVLLTHTISRIAVSYQTKVNLLSAIKSPCQRETPEGAEAKPWYEPIYLGGVFQLEKGDRLSAEINRPDYLLFAESGQVYFGIIAL | soluble
14 | MGSDKIHHHHHHACNTSPREPKAMEANDGSVTTVESNGNKLTVCDLSAVKDTIEVPLSEFVEDCRIVRFETSEEAYFKAWFINATDKHIGIRQGNQDVFKLFDRDGKFLYNVGSVGSGPGEYDTTLYDECIDEKNGHIFFTPFVGKRIMMYDINGQWIKDIPLPMQINKAKIWVNEDGSLSVVHMPFEEGEPLAFRVDTEGNILNQIPATAATKVMNFDGEVFSYRNCGDFDFFHTGIDTLFTYDPAGNKLLPKFTMTFPNMNEKPIHLYYRLPHHFIVTYWGNKGEGGGDVLVDTEKNASSYFRLVNDFYGNLPIPAPGHSFYRGYFIQSLEPGQLIEKIEKQIASGKCSGQDEQKLKELAATLTENDNNVLFIGKVKK | not soluble
15 | MSLFFIYDFAMIMQFNSRYSDLNAKLYHQQAPVPLKGAKAGHFNEAIADELQWTSQEKQSWVDICSGQKTFDAFKPLAMVYAGHQFGQWAGQLGDGRGLLIGQVLHRSGQTIDLHLKGAGLTPYSRMGDGRAVLRSVIREYLAGHALNSLRVASSNAIGFTTSEQGVQRETLEQGAMLLRTSDCHIRLGHFEWINQYAPELLAEFTQKCIEWHYPEALQAEHPILAFAEGVIKNTAKMIADWQLVGFAHGVMNTDNLNITGSTLDFGPYGFMERFRPNWINNHSDHQGRYAYQNQPSIAHWNLWIWLNNLIPLSKPEDKETFKKQLADCLEHFEPTFLTAYTEGLCKKLGLPDFHKDSFDCGMAFLKVLQSEQLDYTQSFLRLQNHDYKALRDDCLDTRQFDDFLNLYHQIREHQDITALDQTMCDVNPVYILRNHMAQQAIEQAERGDFSEVERLFTLLAKPFTRQPALEKEQDLAPLPSDVPEIMVSCSSEGHHHHHH | not soluble
16 | MSIFNKDALSSFFGLSGEEDDYYDNYEEYEERKAVNEPPRRAARPKPQRPVQQQESYSQPAYTQQSEPVVEKPSARYRSAEAHQERDTQQAAYTEKKVVSMRSSNQSATTNTRRAQESTANAKTHKITIIEPRVYSEAMSIAKHLFAEEAVLVNFTLVEEDQARRIVDFLTGTVYALDGDIQRVGNEIFLCTPANMEIDSATAQSLANKQFFDFLEHHHHHH | not soluble
17 | RGRGAAAWRILRCRRLPEPSPFLTQPNLAQSQPPAPVPVTDPSVTMHPAVFLSLPDLRCSLLLLVTWVFTPVTTEITSLDTENIDEILNNADVALVNFYADWCRFSQMLHPIFEEASDVIKEEFPNENQVVFARVDCDQHSDIAQRYRISKYPTLKLFRNGMMMKREYRGQRSVKALADYIRQQKSDPIQEIRDLAEITTLDRSKRNIIGYFEQKDSDNYRVFERVANILHDDCAFLSAFGDVSKPERYSGDNIIYKPPGHSAPDMVYLGAMTNFDVTYNWIQDKCVPLVREITFENGEELTEEGLPFLILFHMKEDTESLEIFQNEVARQLISEKGTINFLHADCDKFRHPLLHIQKTPADCPVIAIDSFRHMYVFGDFKDVLIPGKLKQFVFDLHSGKLHREFHHGPDPTDTAPGEQAQDVASSPPESSFQKLAPSEYRYTLLRDRDEL | soluble
18 | MGSDKIHHHHHHMKVLFRSDSSSQIGFGHIKRDLVLAKQYSDVSFACLPLEGSLIDEIPYPVYELSSESIYELINLIKEEKFELLIIDHYGISVDDEKLIKLETGVKILSFDDEIKPHHCDILLNVNAYAKASDYEGLVPFKCEVRCGFSYALIREEFYQEAKENREKKYDFFICMGGTDIKNLSLQIASELPKTKIISIATSSSNPNLKKLQKFAKLHNNIRLFIDHENIAKLMNESNKLIISASSLVNEALLLKANFKAICYVKNQESTATWLAKKGYEVEYKY | not soluble
19 | MFFSFKIDGDELDKRMGGGVYVGQLFTIFGDNSEGKTLLSLRLAYGFLKNGISITYVSSQMPVREFISFSDALGYPVLNSVISGSMLYITPVFMLRRTRRANLDELINNDRIKEKSVLIIDSLNPGMFRDFEINSYMEKLRKFSENRVVIITANQASLDDATVLRINQLSTTIVTLHSKELGGVKRHFIDLVKYPMVVRSIQQSIPFRVEPGRGLIVEISSVS | not soluble
